From patent US6107104A, “Modulators of anchoring protein function” (ICOS Corporation, priority 1996, dated 2000)

System: PKC
Assay: PKC activity assay with EGF receptor peptide substrate
Assay type: biochemical
Description: In order to asses the ability of these peptides to modulate PKC activity, the following assay was performed in the presence and absence of AKAP 79 peptide fragments. PKC [50 nM dissolved in 50 mM tris-HCl (pH 7.4), 5 mM MgCl2 1.2 mM CaCl2, 1 mM DTT, 1 mM EGTA and 100 μg/ml PS] was incubated with EGF receptor peptide substrate (5 μM) at 30° C. for five minutes. Phosphorylation reaction was initiated by addition of 100 μM ^32 P-ATP (500 cpm/pmol) and the reaction allowed to proceed for ten minutes at 30° C. Aliquots of reaction mixture were removed and spotted into P81 filter paper and the reaction terminated by washing the filter paper with excess 75 mM phosphoric acid (three washes for three minutes each). After a final wash in ethanol, the p81 filters were dried and radioactivity was measured by liquid scintillation counting.

effect of incubation with CaM on inhibition of PKC (CaM 15 μM, excess Ca2+): prevented inhibition | IC50 (read-out: IC50 of inhibition of PKC activity): 25 ± 5 nM
B1: recombinant fragment to the first 75 amino acids of AKAP 79: recombinant fragment of AKAP 79, amino acids 1-75 (protein, UniProt P24588 1-75, looked up, fragment)
chain: METTISEIHVENKDEKRSAEGSPGAERQKEKASMLCFKRRKKAAKALKPKAGSEAADVARKCPQEAGASDQPEPT
